Source: the nanobody polyreactivity screen of Harvey et al. (2022)

Assay: yeast display, Sf9 membrane polyspecificity reagent, FACS + sequencing; frameworks hold sequencing errors
In short: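 In a synthetic yeast display library (Saccharomyces cerevisiae BJ5465), nanobody expression was induced with galactose for 36–48 hours. FACS gates were set low and high (top ~1%) using anti-HA fluorescence for expression and streptavidin fluorescence for binding of the Sf9 membrane reagent. Each polyreactivity label is drawn from the gate of origin.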

| Sequence | polyreactivity (PSR sort gate) |
| --- | --- |
| QVQLVESGGGLVQAGGSLRLSCAASGRTFWYYAMGWYRHAPGKERELVAAITSGGSTNYADSVKGRFTISRDNAKNTVSLQMNSLKPEDTAVYYCAKLFRQRRYWDWYDYWGQGTQVTVSS | high polyreactivity |
| QVQLVESGGGLVQAGGSLRLSCAASGLIFKYNVMGWYRQAPGKERELVAAITKRGGSTYYADSVKGRFTISRDNAKNTVYLQMNSLKPEDTAVYYCAARPVNTVRPFDYWGQGTQVTVSS | high polyreactivity |
| QVQLVESGGGLVQAGGSLRLSCAASGFIIQGNAMGWYRQAPGKERELVAAISSSVSTYYADSVKGRFTISRDNAKNTVYLQMNSLKPEDTAVYYCNAGFPLSLWLGDYWGQGTQVTVSS | low polyreactivity |
| QVQLVESGGGLVKAGGSLRLSCAASGIIFDYYAMGWYRQAPGKERELVAAISWDGGRTYYADSVKGRFTISRDNAKNTVYLQMNSLKPEDTAVYYCNKDYWYGYSDFDYWGQGTQVTVSS | low polyreactivity |
| QVQLVESGGCLVQAGGSLRLSCASSGRTFLVYAMGWYRQAPGKERELVAAITSGGSTYYADSVKGRFTISRDNAKNTVYLQMNSLKPEDTAVYYCAAKIRGYPRRRYDYWGQGTQVTVSS | high polyreactivity |
| QVQLVESGGGLVQAGGSLRLSCAASGSTFNRYAMGWYRQAPGKERELVASITTSDSTNYADSVNGRFTISRDNANNTVFLQINSLNPEDTAVYYCNAEVRGVWYTYDYWGQGTHVTVSS | low polyreactivity |
| QVQLVESGGGLVQAGGSLRLSCAASGRSLRYYAMGWYRQAPGKERELVAVITRDGSTYYADSVKGRFTIPRDNAKNTVYLQMNSLKPEDTAVSYCVYGLTYRSFYYWGQGTQVTVSS | high polyreactivity |
| QVQLVESGGGLVQAGGSLRLSCAASGSIFRLNTKGGYRQAPGKERELVAAISNGGRTYYADSVTGRFTISRDNAKNTVYLQMNSLKPEDTAVYYCNVRYGRSKIYGYWGQGTQVTVSS | high polyreactivity |
| QVQLEESGGGLVQAGGSLRLSCAASRRIFGSNAMGWYRQAPAKERELVAVITSGGRTYYADSVKGRFTISRDNAKNTVYLQMNSLKPGDTSVYYCNAYYKAAYDYWGQGTQVTVSS | high polyreactivity |
| QVQLVESGGGLVQAGGSLRLSCAASGSTFRLNAMGWYRQAPGKERELVAAISWTGGSTYYADSVKGRFTISRDNAKNTVYLQMNSLKPEDTAVYYCAADWWQGTSHYWGGAYNYWGQGTQVTVSS | low polyreactivity |
| QVQLVESGGGLVHAGGSLRLSCAASGRTFTLYAMGWYRQAPGKERELVAAITRTGRTTYADSVKGRFTISRDNAKNTVYLQMNSLKPEDTAVYYCAAEVEYTSASIVYYEYEYWGQGTQVTVSS | high polyreactivity |
| QVQLVESGGGLVQAGGSLRLSCAASGSIFDLYAMGWYRQAPGKERELVAGISYSGGSTYYADSVKGRFTISRDNAKNTVYLQMNSLKPEDTAVYHCADDGGWRYHPFSSLFDYWGQGTQVTVSS | low polyreactivity |
| QVQVVESGGGLVQAGGSLRLSCAASGSSFGVNAMGRYTQAPGKERELVASITWSGDNTYYADSVKGRFTISRDNAKNTVYLQMNSLKPEDTAVYYCAATIWIAYRGWYSDYNYWGQGTQVTVSS | low polyreactivity |
| QVQLVESGGGLVKAGGSLRLSCAASGSTFEYDMGWYRPAPGKERELVAAITWTDGGTYYADSVNGRCTISRDNAKNTVYFQMNSLKPEDTAVYYCNAEGWFADFDSGFYAFDYWGQGTQVTVSS | low polyreactivity |
| QVQLVESGGGLVQAGGSLRLSCAASGSIFTSYAMGWYRQAPGKERELVAGITRGGRTYYADSVKGRFTISRDNAKNTVYLQMNSLKPEDTAVYYCAALSSRHFVFTVDYWGQGTQVTVSS | high polyreactivity |
| QVQLVESGGGLVQAGGSLRLSCAASGSTFALYVMGRYRQAPGKERELVAAINSVGSKYYADSVKGRFTISRDNAKNTVYLQMHSLKPEDTSVYYCAAVSTYRPGWYYRYNYWGHGTQVTVSS | high polyreactivity |

| Sequence | polyreactivity (PSR sort gate) |
| --- | --- |
| QVQLVESGGGLVQAGGSLRLSCAASGYTFAPYVMGWYRQAPGKERELVARISNNGGSKYYADSVKGRFTISRDNAKNTFYLQMNSLKPEDTAVYYCAADVGLIYFRYYYCGQGTQVTVSS | low polyreactivity |
| QVQLVESGGGLVQAGGSLRLSCAPSGRTFLAYAMGWYRQAPGKEREVVAAISSSGSTTYYADSVKGRFTISRDNAKNTVYLQMNSLKPEDTAVYYCAASNGYRSSYYRYDYWGQGTQVTVSS | low polyreactivity |
| QVQLVESGGGLVQAGGSLRLSCAASGSTFAYYAMGWYRQAPGKEREWVAGISGSGGSTYYADSVKGRFTISRDYAKNTVYLHMNSLKPEDTAVYYCAVVQRSKRTYPWYDYWGQGSQVTVSS | low polyreactivity |
| QVQLVESGGGLVQPGGSLRLSCAASGRISSKYAMGWYRQAPGKERELVATISSRGGSTYYADSVKGRFTISRDNAKNTVYLQMNSLKPEDTAVYYCNRPTYLHSTSYSYDYWGQGTQVTVSS | low polyreactivity |
| QVQIVESGGGLVQAGGSLRLSCAASGRIYRYVMGWYRQAPGKERELVATITGSGGSTYYADSVKGRFTISRDNAKNTAYLQMNSLKPEDTAVYYCAAAGRGSWTTYRFDYWGLGTQVTVSS | high polyreactivity |
| QVQLVESGGGLVQAGGSLRLSCAASGNIFGYYAMGWYRQAPGKERELVAAITTTGGSTYYADSVKGRFTISRDNAKNTVYLQMNSLKPEDTAVYYCAAETGYWYYYWGQGTQVTVSS | high polyreactivity |
| QVQLVESGGGLVQAGGSLRLSCADSGSTFWFYAMGWYRQAPGKERELVAVISNSGSTYYADSVKGRYTISRDNAKNTVSLQMNSLKPEDTAVYYCNKDGGGDSYWYVYWGQGTQVTVSS | low polyreactivity |
| QDQLVDSGGGLVQAGGSLRLSCASSGGTFSYYTMGWYRQAPGKERELVARISKNGGRTYYADSVKGRFTISRDNAKNTVYLQLNSLKPEDTAVYYCNAAGRTYDFSGGRTMEYWGQGTQVTVSS | high polyreactivity |
| QVQLVESGGGLFQAGASLRLSCAASGFIFTDYAIGWDTQAPGKERELVAAISSGGRTYYADSVKGRFTISRDNAKNTVYLQMNSLKPEDTAVYYCARGGRAEGWGQGTQVTVSS | high polyreactivity |
| QVHLVESGGGLVQAGGSLRLSCAASGFTFVSYAMGWYRQAPGKESELVAAISWSSARTYYADSVKGRFTISRHNAKNTVYLQRNSLKPEDTAVYYCNAVRGFSSSRGGYNYWGQGTQVTVSS | high polyreactivity |
| QVQLVESGGGLVQAGGSLRLSCAASGRIFYKNDLGWYRQAPGTETELVATLTYSDGTTYYADSVKGRFTISRDNAKNTVYLQMNSLKPEDTAVYYCAAQTDSVESDYWGQGTQVTVSS | low polyreactivity |
| QVQLVESGGGLVQAGGRLRLSCAASGIIFVYYAMGWYRQAPGKERELVADITRSGSSTYYADSVKGRFTISRDNAKNTVYLQMNSLKAEDTAVYFCAADNFYQAYGYWGQGTQVTVSS | low polyreactivity |
| QVQLVESGGGLVQAGGSLRLSCAASGRIFRGNTMGWYRQAPGKERELVAAITIRGRTYYADSVKGRFTISRDNAKNTVYLQMNSLKPEDTAVYYCAVASAGDNDYWGQGTQVTVSS | low polyreactivity |
| QVQLVESGGGLVQAGGSLRLSCAASGFTVSYYVMGWYRQAPGKERELVAGISWSGVSTYYADSVKGRFTISRDNAKNTVYLQMNSLKPEDTAVYYCAAGYDFSFFVPVRYTEYDYWGQGTQVTVSS | high polyreactivity |
| QVQLVESGGGLVQAGGSLRLSCAASGSIFPQYAMGWYRQAPGTERELVDAITWSGSRTRYADSVKGRFTISRDNAKNTVYLQMNSLKPEDTAVYYCAARFNGQTYYYCGQGTQVTVSS | high polyreactivity |
| QVQLVESGGGLVQAGGSLRLSCAASGSTFRKNAMGWYRQAPGKERELVAAITYSGGGTYYADSVKGRFTISRDNAKNTVYLQMNSLKPEDTAVYYCAAERNKYAPYYYWGQGTQVTVSS | high polyreactivity |
